From article PMC5573156 (Developmental cell, 2017) come the findings set out here.

Where two headings read alike, the source gives them in different places.

Assay [1] concerns the target microtubules polymerized from bovine brain tubulin (bovine) (UniProt Q6B856). The experiment in a line: single-molecule TIRF motility assay.
For assay [2], the target named is bovine brain tubulin, unpolymerized (soluble αβ-tubulin dimer) (bovine) (UniProt Q6B856).
In assay [3] the target is Kip3_(438) (S. cerevisiae) (UniProt P53086). Kind of assay: BLI. Background: In BLI a coated tip is dipped into the sample, and binding shifts an interference pattern.
For assay [4], the target named is Kip3_(438)-L11^KHC (S. cerevisiae) (UniProt P53086). Kind of assay: BLI.
For assay [5], the target named is Kip3_(448) (S. cerevisiae) (UniProt P53086). The experiment in a line: BLI.
For assay [6], the target named is microtubules polymerized from bovine brain tubulin (bovine) (UniProt Q6B856). Kind of assay: single-molecule TIRF motility assay. This is another data set of the same source.
Chain of microtubules polymerized from bovine brain tubulin (bovine) (Q6B856 whole entry, looked up): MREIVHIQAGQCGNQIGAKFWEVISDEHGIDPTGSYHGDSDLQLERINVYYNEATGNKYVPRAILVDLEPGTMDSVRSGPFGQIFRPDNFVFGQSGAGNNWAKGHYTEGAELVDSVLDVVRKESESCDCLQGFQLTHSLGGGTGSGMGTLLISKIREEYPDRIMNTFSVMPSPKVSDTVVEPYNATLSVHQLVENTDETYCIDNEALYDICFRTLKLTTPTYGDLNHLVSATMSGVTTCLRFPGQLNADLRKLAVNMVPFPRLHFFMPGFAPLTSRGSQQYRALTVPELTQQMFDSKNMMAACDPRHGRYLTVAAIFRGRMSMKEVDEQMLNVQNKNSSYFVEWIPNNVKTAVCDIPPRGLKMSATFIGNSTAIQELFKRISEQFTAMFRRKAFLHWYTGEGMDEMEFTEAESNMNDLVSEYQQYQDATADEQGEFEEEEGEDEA
The target of assay [7] is GTPγS-stabilized Tub1^D118A yeast microtubules (S. cerevisiae, UniProt P09733 1-447; P02557 1-457, D118A). Kind of assay: TIRF fluorescence intensity on immobilised microtubules.
Chain of GTPγS-stabilized Tub1^D118A yeast microtubules (P09733 whole entry D118A, chain 1 of 2): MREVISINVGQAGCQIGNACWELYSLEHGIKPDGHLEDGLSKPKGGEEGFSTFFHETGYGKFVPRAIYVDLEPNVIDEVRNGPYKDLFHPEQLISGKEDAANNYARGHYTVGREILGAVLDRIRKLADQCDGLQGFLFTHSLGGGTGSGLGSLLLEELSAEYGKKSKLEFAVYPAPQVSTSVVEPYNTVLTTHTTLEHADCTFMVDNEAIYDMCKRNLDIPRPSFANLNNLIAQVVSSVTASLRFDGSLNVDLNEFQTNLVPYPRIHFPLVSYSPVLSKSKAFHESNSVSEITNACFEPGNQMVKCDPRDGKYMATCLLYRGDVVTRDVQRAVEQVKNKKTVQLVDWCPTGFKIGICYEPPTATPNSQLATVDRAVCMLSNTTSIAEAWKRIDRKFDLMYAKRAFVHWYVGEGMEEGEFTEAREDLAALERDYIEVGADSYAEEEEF
Chain of GTPγS-stabilized Tub1^D118A yeast microtubules (P02557 whole entry, stated change not applied, chain 2 of 2): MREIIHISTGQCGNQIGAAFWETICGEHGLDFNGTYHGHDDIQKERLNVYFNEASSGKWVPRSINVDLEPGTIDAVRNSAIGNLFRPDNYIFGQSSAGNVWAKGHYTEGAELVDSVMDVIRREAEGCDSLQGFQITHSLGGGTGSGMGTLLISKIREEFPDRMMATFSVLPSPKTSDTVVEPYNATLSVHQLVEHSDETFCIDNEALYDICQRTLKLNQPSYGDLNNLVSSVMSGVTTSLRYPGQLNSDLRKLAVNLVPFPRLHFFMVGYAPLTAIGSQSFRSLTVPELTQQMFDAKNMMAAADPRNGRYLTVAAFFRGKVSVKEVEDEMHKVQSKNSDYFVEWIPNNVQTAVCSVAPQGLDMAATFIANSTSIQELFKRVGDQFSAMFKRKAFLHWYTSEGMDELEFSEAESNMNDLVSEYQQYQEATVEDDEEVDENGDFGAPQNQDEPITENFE
The target in assay [8] is microtubules polymerized from bovine brain tubulin (bovine) (UniProt Q6B856). The experiment in a line: single-molecule TIRF motility assay. This is another data set of the same source.

Regarding “KHC560 with Kip3 Loop11 and Loop2 (from UniProt P33176 1-560)”, the plus-end residence time in assay [1] is 52.1 s.

With “Kip3FL-L2^KHC (from UniProt P53086 1-805)”, the plus-end dwell time in assay [1] was 9.3 s.

For “KHC560-L11^Kip3 (from UniProt P33176 1-560)”, the steady-state ATPase: decrease of the KM for tubulin against kinesin-1 in assay [2] was determined as 9.4 fold.

On to “bovine brain tubulin, unpolymerized (soluble αβ-tubulin dimer) (from UniProt Q6B856 1-445) (complex)”, for which the lifetime of the complex in assay [3] came to 48 s. This molecule also gave a fold change in tubulin binding affinity, Kip3 438 over Kip3 438-L11KHC in assay [4] of 7 fold. In assay [5], this molecule showed a residence time (koff^-1) with ADP of 35.7 s.

B1: Kip3FL (full-length Kip3, budding yeast kinesin-8) (natural protein, S. cerevisiae, UniProt P53086 1-805, looked up)
chain: MNVPETRQSSIVVAIRVRPFTSMEKTRLVNEASGAEANFPGLGDSSLILPMSNNSDSDIDIDAEEGSTRSKRNSLLRRKVIRPEGIRKIVDCVDDRMLIFDPADRNPLNKVSDQVLNSMRARATKATASSINNSNATNKFSSQRRRHGGEIKFVFDKLFDETSSQARVYKETTSPLLDSVLDGFNSTVFAYGATGCGKTYTVSGTPSQPGIIFLAMEELFNKITDLKDEKDFEISLSYLEIYNERIRDLLKPETPSKRLVIREDTQNHIKVANLSYHHPNTVEDVMDLVVQGNINRTTSPTEANEVSSRSHAVLQIHIMQTNKLVDLTSQHTFATLSIIDLAGSERAAATRNRGIRLHEGANINRSLLALGNCINALCLNDGSRSCHIPYRDSKLTRLLKFSLGGNCKTVMIVCISPSSSHYDETLNTLKYANRAKEIKTKIIRNQQSLSRHVGSYLKMITEQKRQIEELREREEKMISLKLTKYKLNKEKIQLAINECVNRVQQTYAGVETYQVAKTLKSLILCKRRFLQMVKLEVDNLILLFEREESTAAEMQPVISNCRMISGQLYNKIHELEMKFDETDTLSSVIHQVHSIDLNKLREMEDWDETYDLVYLESCLNQISELQRNEILVNSSIMTEKLMSDPGLNSRFKFLSKWLMNRTPNIESIIQDLVHIDEEFESFARTFIANPDSNFTNTNINIINTTAADLAVPAETLQRQNFSQKKVKWTSPDLSPSPMIEPQPELEPELHQDQDAIASEVDVSMQDTTFNEQGPSTPSAPTTAVPRRKMRSSLLTHQSLLATARK
modifications: TMR (HALO-TMR) on the HALO tag where labelled
Turning to B1, the plus-end dwell time was 38.2 s in assay [6] and 52.9 s in assay [8]. In addition, in assay [7], the binding result is listed as “binds”.
